US20220023399A1, “BLOOD COMPONENT POTENTIATION OF LYTIC PROTEIN ANTI-BACTERIAL ACTIVITY AND METHODS AND USES THEREOF” (priority 2017, published 2022)
Where “and” joins values, the source holds several entries; their conditions need not be identical. Equal values may be shown once.

Tests used:
[1] = test system: 171 clinical S. aureus isolates (MSSA, MRSA, vancomycin-, linezolid-, daptomycin-resistant); experiment: MIC by broth microdilution in CAMHB vs human serum, 171 clinical isolates
[2] = test system: S. aureus strain MW2; experiment: MIC by broth microdilution in human blood matrices and animal sera; type: cell-based; conditions: for PlySs2/CF-301 MIC: different lots
Experimental: FIG. 5 provides PlySs2 (CF-301) MIC distribution for S. aureus MW2 in different human blood matrices. […] Each sample is described in Supplementary Table 1. The MICs are plotted on the x axis, and the numbers of patient samples with particular MICs are plotted on the y axis.
To understand whether variation in the sources of human blood-derived matrices may impact activity, PlySs2 (CF-301) MICs were determined using an array of 62 different pooled and individual human donor samples of whole blood, serum and plasma from different commercial sources with variations in age, sex, blood type, and type of anticoagulant used. […] Histograms showing MIC frequencies for each of the different matrices indicate that activity in whole blood and serum is equivalent, while activity in plasma differs by ˜1-log 2 dilution (FIG. 5). Overall, the enhancer effect was not impacted by variations in the age, sex, and blood type of individual or pooled donors or by the use of sodium citrate or sodium heparin as anticoagulants (TABLE 3). The effect was also observed in complement-inactivate media, complement preserved media, and was equivalent in at least 3 different matched sets of human blood, serum and plasma fractions, while delipidated serum was not equivalent.
The impact of sample variation on PlySs2 (CF-301) activity in the serum of different animal species was also examined.

[3] = test system: MRSA strain MW2; experiment: Rat infective endocarditis model; type: in vivo, Sprague-Dawley rats
[4] = test system: S. aureus ATCC 43300 (MRSA); experiment: Checkerboard assay, additional MRSA strains; type: cell-based; conditions: paired agent not given
[5] = test system: MRSA strain MW2; experiment: Rabbit infective endocarditis model; type: in vivo, New Zealand White Rabbits; conditions: rabbit; total dose ≥0.09 mg/kg PlySs2 (CF-301) in addition to DAP below the HTD equivalent
[6] = test system: methicillin-resistant S. aureus (MRSA) strain MW2; experiment: Time-kill assay in blood matrices and MHB; type: cell-based
[7] = human whole blood (n=13), serum (n=33) and plasma (n=15) samples
[8] = medium head missing (human serum)

B1: PlySs2 (CF-301): antistaphylococcal lysin from a Streptococcus suis prophage; N-terminal CHAP domain, C-terminal SH3-type binding domain; SEQ ID NO:3 (protein, listed as Streptococcus suis)
chain: MTTVNEALNNVRAQVGSGVSVGNGECYALASWYERMISPDATVGLGAGVGWVSGAIGDTISAKNIGSSYNWQANGWTVSTSGPFKAGQIVTLGATPGNPYGHVVIVEAVDGDRLTILEQNYGGKRYPVRNYYSAASYRQQVVHYITPPGTVAQSAPNLAGSRSYRETGTMTVTVDALNVRRAPNTSGEIVAVYKRGESFDYDTVIIDVNGYVWVSYIGGSGKRNYVATGATKDGKRFGNAWGTFK
[1]; MRSA (N 75), CAMHB
  MIC Range: 2-128
[1]; MRSA (N 75), human serum
  MIC Range: 0.25-2
[1]; MSSA (N 74), CAMHB
  MIC Range: 8-32
[1]; MSSA (N 74), human serum
  MIC Range: 0.25-1
[1]; Other (N 22: 12 vancomycin-, 5 linezolid-, 5 daptomycin-resistant strains), CAMHB
  MIC Range: 0.5-32^
[1]; Other (N 22: 12 vancomycin-, 5 linezolid-, 5 daptomycin-resistant strains), human serum
  MIC Range: 0.25-2
[2]; AST medium
  MIC: ^$$MIC AST medium: 0.5 μg/mL
[2]; dog serum (undiluted)
  PlySs2/CF-301 MIC: 1 µg/mL and 0.5 µg/mL
[2]; human serum, delipidized, pooled lots
  MIC: 64
[2]; [7]
  MIC90: 1 µg/mL
  MIC Range: 0.5 to 2 µg/mL
[2]; mouse serum (undiluted)
  PlySs2/CF-301 MIC: 32 µg/mL and 64 µg/mL
[2]; rabbit serum (undiluted)
  PlySs2/CF-301 MIC: 1 µg/mL
[2]; rat serum (undiluted)
  PlySs2/CF-301 MIC: 8 µg/mL
[3]; S. aureus infectious endocarditis models
  fold lower doses giving comparable efficacy in the rabbit vs the rat model: 111 fold
[3]; rat IE model, 10 mg/kg in addition to DAP, 3 log10 drop relative to DAP alone
  estimate AUC/MIC ratio required to achieve maximal efficacy: ≥ 0.87
[3]; rat, total dose 10 mg/kg PlySs2 (CF-301) in addition to HTD equivalent of DAP, relative to DAP alone
  drop in CFU/g in heart valve vegetation: ~3 log 10
[3]; rats 10 mg/kg vs rabbits 0.18 mg/kg
  fold higher AUC exposure required for similar bactericidal effect in rats compared to rabbits: > 20 fold
[3]; rats 10 mg/kg vs rabbits 0.18 mg/kg, in addition to DAP
  fold higher dose required for similar bactericidal effect in rats compared to rabbits: ~50 fold and > 50 fold
[4]; CAMHB
  ΣFICavg: 0.87
  ΣFICmin: 0.5
[4]; [8]
  ΣFICavg: 0.29
  ΣFICmin: 0.25
[5]
  decrease in bacterial densities as compared to DAP treatment alone: 3 log 10
[6]; MHB
  minimum sterilizing concentration: 320 µg/mL
[6]; all human blood matrices (whole blood, serum, plasma), sterilizing by 24 hours
  minimum sterilizing concentration: 3.2 µg/mL
[6]; calf serum
  sterilizing concentration: 32 µg/mL
[6]; dog serum
  sterilizing concentration: 3.2 µg/mL
[6]; mouse serum
  sterilizing concentration: > 320 µg/mL
[6]; rabbit serum
  sterilizing concentration: 3.2 µg/mL
[6]; rat serum
  sterilizing concentration: 32 µg/mL
[6]; strain MW2, human blood matrices vs MHB
  difference in sterilizing activity/potency, blood compared to MHB: 100 fold
